Test results: US20070265350

How the values were obtained:
[1] = test system: Histidine-tagged Rac1
[2] = molecular target: His-Cdc42 (UniProt P60953)
Sequence of His-Cdc42 (P60953 whole entry, looked up): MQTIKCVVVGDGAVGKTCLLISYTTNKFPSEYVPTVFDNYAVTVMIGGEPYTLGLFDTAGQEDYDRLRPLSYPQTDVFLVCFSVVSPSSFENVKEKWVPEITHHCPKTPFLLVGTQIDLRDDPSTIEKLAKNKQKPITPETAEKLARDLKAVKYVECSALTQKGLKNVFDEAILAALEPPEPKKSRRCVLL

Sequence of Demetalated bovine SOD1 (chain, as listed by the source): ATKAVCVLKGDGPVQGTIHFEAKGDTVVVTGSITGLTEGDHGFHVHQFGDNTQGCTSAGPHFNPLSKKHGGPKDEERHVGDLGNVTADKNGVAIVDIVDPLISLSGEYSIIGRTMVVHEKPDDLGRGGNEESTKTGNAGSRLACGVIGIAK
Sequence of Bovine copper/zinc superoxide dismutase (SOD1), native (chain, as listed by the source): as above

Substance: Demetalated bovine SOD1
- Rac1 GTPase assay (rate of 32Pi release from γP32-GTP) [1]: also did not inhibit Rac1 GTPase activity (FIG. 6B)

Substance: Bovine copper/zinc superoxide dismutase (SOD1), native
- Cdc42 GTPase assay (rate of 32Pi release from γP32-GTP) [2]: The ability of SOD1 to inhibit GTP hydrolysis was also specific for Rac1 and was not observed with the closely related small GTPase Cdc42
